The values below come from patent US20230406921A1 (MABWELL SHANGHAI BIOSCIENCE, published 2023).

Substitutions are numbered along the chain they refer to.

In experiment [1] the target is T1, recombinant antigen of the extracellular region of CD47 (Sino Biological, Cat: 12283-H08H) (human, UniProt Q08722 19-139).
T1 construct: extracellular domain; also called recombinant CD47 extracellular region; CD47 recombinant protein
The experiment can be described thus: Fortebio BLI. (In general: In BLI a coated tip is dipped into the sample, and binding shifts an interference pattern.)

The target in another experiment is PD-L1 (human, UniProt Q9NZQ7 19-239, limits assumed). The experiment can be described thus: Fortebio BLI.
PD-L1, sequence (Q9NZQ7 19-239 limits assumed): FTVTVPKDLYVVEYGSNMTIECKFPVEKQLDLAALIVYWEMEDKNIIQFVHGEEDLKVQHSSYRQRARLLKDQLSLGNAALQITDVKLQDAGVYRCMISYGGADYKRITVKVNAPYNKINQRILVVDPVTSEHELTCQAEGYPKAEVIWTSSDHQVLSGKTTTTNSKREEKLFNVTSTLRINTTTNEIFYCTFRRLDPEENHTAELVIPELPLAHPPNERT
The target of experiment [2] is T2, CD47 on the surface of human red blood cells (human, UniProt Q08722 19-323).
T2 construct: whole, on cells; Same protein as m3, on red blood cells; also called hRBC; RBC
The experiment can be described thus: FACS, human red blood cells, antibody 1000 nM. A general note: Flow cytometry measures light scatter and fluorescence of single cells or particles in a stream.
Protocol: (§1) In the experiment of analyzing the binding to human red blood cells, the antibody was used at a concentration of 1000 nM; and in the experiment of analyzing the binding to tumor cells, the antibody was used at a concentration of 100 nM.

In experiment [3] the target is T3, CD47 on the surface of tumor cells (human, UniProt Q08722 19-323).
T3 construct: whole, on cells; Same protein as m4; also called CD47 antigen on the surface of U937 and CCRF cells; SKOV-3
The experiment can be described thus: FACS, SKOV-3 tumor cells (no PD-L1), antibody 100 nM.
Protocol: as §1

In a further experiment the target is T4, human PD-L1 on cells (human, UniProt Q9NZQ7 19-290).
T4 construct: whole, on cells; also called MC38-hPD-L1/hCD47 cells; A431 cells
T4 sequence (Q9NZQ7 19-290): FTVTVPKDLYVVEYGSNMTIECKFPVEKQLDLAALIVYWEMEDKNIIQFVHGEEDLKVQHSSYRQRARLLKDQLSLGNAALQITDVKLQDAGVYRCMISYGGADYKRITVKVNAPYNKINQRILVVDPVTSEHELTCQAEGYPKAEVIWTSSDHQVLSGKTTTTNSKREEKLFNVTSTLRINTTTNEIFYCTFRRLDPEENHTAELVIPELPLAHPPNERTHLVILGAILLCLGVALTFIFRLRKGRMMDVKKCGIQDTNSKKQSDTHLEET
The experiment can be described thus: flow cytometry on A431 cells.

In experiment [4] the target is T3, CD47 on the surface of tumor cells. The experiment can be described thus: flow cytometry on A431 cells.
In experiment [5] the target is T2, CD47 on the surface of human red blood …. The experiment can be described thus: FACS, hRBC, 500 nM.
Protocol: (§2) The difference between the binding of the mutant to CD47 on the surface of tumor cells and CD47 on the surface of red blood cells was evaluated.
Experiment [6] deals with T3, CD47 on the surface of tumor cells. The experiment can be described thus: FACS, tumor cells, 1 nM.
Protocol: as §2

B1: anti-human CD47/PD-L1 bispecific antibody 2MW1531-m9 (bispecific antibody, human IgG4 S228P, kappa)
heavy 1: EVQLVQSGAEVKKPGASVKVSCKASGYKFTNYVMSWVRQAPGQRLEWMGYINPYNDAIKYNEKFTGRVTITRDTSASTAYMELSSLRSEDTAVYYCAREGDFYANYGRLGFAYWGQGTLVTVSSASTKGPSVFPLAPCSRSTSESTAALGCLVKDYFPEPVTVSWNSGALTSGVHTFPAVLQSSGLYSLSSVVTVPSSSLGTQTYTCNVDHKPSNTKVDKRVESKYGPPCPPCPAPEFLGGPSVFLFPPKPKDTLMISRTPEVTCVVVDVSQEDPEVQFNWYVDGVEVHNAKTKPREEQYNSTYRVVSVLTVLHQDWLNGKEYKCKVSNKGLPSSIEKTISKAKGQPREPQVYTLPPSQKEMTKNQVSLTCLVKGFYPSDIAVEWESNGQPENNYKTTPPVLDSDGSFFLYSKLTVDKSRWQEGNVFSCSVMHEALHNRYTQKSLSLSLGK
heavy 2: EVQLVQSGAEVKKPGATVKISCKVSGFNIKDIYMHWVQQAPGKGLEWMGRIDPANANTKYDPKFQDRVTITADTSTNTAYMELSSLRSEDTAVYYCASGQLGPLGFDYWGQGTTVTVSSASTKGPSVFPLAPCSRSTSESTAALGCLVKDYFPEPVTVSWNSGALTSGVHTFPAVLQSSGLYSLSSVVTVPSSSLGTQTYTCNVDHKPSNTKVDKRVESKYGPPCPPCPAPEFLGGPSVFLFPPKPKDTLMISRTPEVTCVVVDVSQEDPEVQFNWYVDGVEVHNAKTKPREEQYNSTYRVVSVLTVLHQDWLNGKEYKCKVSNKGLPSSIEKTISKAKGQPREPQVYTLPPSQEEMTKNQVSLTCLVKGFYPSDIAVEWESNGQPENNYKTTPPVLDSDGSFFLYSKLTVDKSRWQEGNVFSCSVMHEALHNHYTQESLSLSLGK
VL: DIQMTQSPSSLSASVGDRVTITCRASQDISNYLNWYQQKPGKAPKLLLYYTSRLHSGVPSRFSGSGSGTDYTLTISSLQPEDFATYFCQQGDTFPYTFGGGTKVEIKRTVAAPSVFIFPPSDEQLKSGTASVVCLLNNFYPREAKVQWKVDNALQSGNSQESVTEQDSKDSTYSLSSTLTLSKADYEKHKVYACEVTHQGLSSPVTKSFNRGEC
notes: Knobs-into-holes with a common light chain
With B1, in experiment [1], the Kd – broadly, the free concentration of one partner at which half of the binding sites on the other are occupied at equilibrium, for simple one-to-one binding – came to 79.6 nM; the koff – broadly, a measure of how fast the partners let go of each other – worked out at 0.00947 s⁻¹; the on-rate constant (kon) (as a rule, the rate constant with which the complex forms) was 119000 M⁻¹ s⁻¹. Also, in the experiment with PD-L1, the affinity, expressed as Kd, was 0.706 nM; the dissociation rate constant (koff) stood at 0.000272 s⁻¹; the on-rate constant (kon) was 385000 M⁻¹ s⁻¹. In addition, in experiment [2], the “Binding to human red blood cells (MFI)” value came to 781 MFI. In addition, the “Binding to tumor cells (MFI)” value in experiment [3] was 37800 MFI.

B2: anti-human CD47/PD-L1 bispecific antibody 2MW1531-m3 (bispecific antibody)
heavy 1: B1 heavy 1
heavy 2: B1 heavy 2
VL: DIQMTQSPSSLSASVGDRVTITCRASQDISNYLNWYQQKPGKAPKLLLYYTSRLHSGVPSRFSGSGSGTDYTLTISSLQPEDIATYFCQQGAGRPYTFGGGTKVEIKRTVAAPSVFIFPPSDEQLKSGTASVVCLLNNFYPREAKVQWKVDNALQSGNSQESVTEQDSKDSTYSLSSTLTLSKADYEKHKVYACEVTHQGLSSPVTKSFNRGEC
notes: as for B1
On to B2, for which, in experiment [1], the Kd was determined as 65.7 nM, the koff stood at 0.00769 s⁻¹ and the kon amounted to 117000 M⁻¹ s⁻¹. In the experiment with PD-L1, this molecule gave a Kd of 1.02 nM, a koff of 0.000163 s⁻¹ and an on-rate constant (kon) of 159000 M⁻¹ s⁻¹. For the same molecule, in experiment [2], the “Binding to human red blood cells (MFI)” value was 955 MFI. In experiment [3], the “Binding to tumor cells (MFI)” value stood at 34900 MFI.

B3: anti-human CD47/PD-L1 bispecific antibody 2MW1531-m11 (bispecific antibody)
heavy 1: B1 heavy 1
heavy 2: B1 heavy 2
VL: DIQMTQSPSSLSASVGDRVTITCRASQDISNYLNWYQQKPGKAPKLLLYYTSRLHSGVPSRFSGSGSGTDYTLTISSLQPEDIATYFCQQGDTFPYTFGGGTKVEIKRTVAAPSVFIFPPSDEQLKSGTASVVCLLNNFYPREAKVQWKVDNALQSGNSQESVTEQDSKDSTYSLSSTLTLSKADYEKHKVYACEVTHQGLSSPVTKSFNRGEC
notes: as for B1
On to B3, for which, in experiment [1], the equilibrium dissociation constant (Kd) is 74.9 nM, the dissociation rate constant (koff) is 0.00907 s⁻¹ and the kon is 121000 M⁻¹ s⁻¹. In the experiment with PD-L1, this molecule yielded a Kd of 0.784 nM, a koff of 0.000237 s⁻¹ and an association rate constant (kon) of 302000 M⁻¹ s⁻¹. The “Binding to human red blood cells (MFI)” value in experiment [2] stood at 878 MFI. The “Binding to tumor cells (MFI)” value in experiment [3] came out at 28900 MFI.

B4: anti-human CD47/PD-L1 bispecific antibody 2MW1531-m10 (bispecific antibody)
heavy 1: B1 heavy 1
heavy 2: B1 heavy 2
VL: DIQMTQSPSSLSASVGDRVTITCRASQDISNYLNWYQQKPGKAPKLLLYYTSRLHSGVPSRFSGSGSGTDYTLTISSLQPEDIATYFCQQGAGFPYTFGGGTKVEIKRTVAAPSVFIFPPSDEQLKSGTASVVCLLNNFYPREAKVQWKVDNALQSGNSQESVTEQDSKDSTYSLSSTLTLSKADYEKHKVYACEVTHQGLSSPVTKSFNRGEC
notes: as for B1
On to B4, for which, in experiment [1], the Kd is 54.8 nM, the koff came out at 0.00547 s⁻¹ and the on-rate (kon) came out at 99800 M⁻¹ s⁻¹. Moreover, in the experiment with PD-L1, the Kd came out at 1.28 nM, the koff was found to be 0.000369 s⁻¹ and the on-rate (kon) was determined as 288000 M⁻¹ s⁻¹. For the same molecule, the “Binding to human red blood cells (MFI)” value in experiment [2] was 890 MFI. Moreover, in experiment [3], the “Binding to tumor cells (MFI)” value is 26200 MFI.

B5: anti-PD-L1 monoclonal antibody (hz182) (antibody, human IgG4 S228P, kappa, V domains shown)
VH: QLVQSGAEVKKPGATVKISCKVSGFNIKDIYMHWVQQAPGKGLEWMGRIDPANANTKYDPKFQDRVTITADTSTNTAYMELSSLRSEDTAVYYCASGQLGPLGFDYWGQGTTVTVSS
VL: DIQMTQSPSSLSASVGDRVTITCRASQDISNYLNWYQQKPGKAPKLLLYYTSRLHSGVPSRFSGSGSGTDYTLTISSLQPEDFATYFCQQGAGRPYTFGGGTKVEIKR
notes: also called humanized anti-human PD-L1 antibody; anti-PD-L sidearm monoclonal antibody
With B5, the EC50 (read off the curve) – broadly, the midpoint of the concentration-response curve – with human PD-L1 on cells is roughly 0.1 nM.

B6: 1F8 (antibody, human IgG4, V domains shown)
VH: KVQLVESGGGLVKPGGSLRLSCAASGFTFSNAWMNWVRQAPGKGLEWVGRIKRKTDGETTDYAAPVKGRFSISRDDSKNTLYLQMNSLKTEDTAVYYCAGSNRAFDIWGQGTMVTVSA
VL: DIVMTQSPDSLAVSLGERATINCKSSQSVLYSSNNRNYLAWYQQKPGQPPKLLINQASTRASGVPDRFSGSGSGTEFTLIISSLHAEDVAIYYCQQYYTPPLAFGGGTKLEIK
notes: also called anti-CD47 antibody 1F8; control anti-CD47 monoclonal antibody 1F8
Consider B6, for which the “EC50 (read off the curve)” value in experiment [4] is 2 to 3 nM.

B7: h140Hm13/h140L (antibody, V domains shown)
VH: EVQLVQSGAEVKKPGASVKVSCKASGYKFTNYVMSWVRQAPGQRLEWMGYINPYNDAIKYNEKFTGRVTITRDTSASTAYMELSSLRSEDTAVYYCAREGDFYANYGRLGFAYWGQGTLVTVSS
VL: DIQMTQSPSSLSASVGDRVTITCRASQDITNYLNWYQQKPGKAPKLLIYYTSRLHSGVPSRFSGSGSGTDYTFTISSLQPEDIATYFCQQGDTFPRTFGGGTKVEIK
notes: Heavy chain mutant 140Hm13 with the unmutated light chain of hz140
As for B7, the “FACS (MFI)” value in experiment [5] was found to be 27400 MFI; in experiment [6], 102000 MFI.

B8: h140Hm13/h140Lm2 (antibody, V domains shown)
VH: B7 VH
VL: B7 VL with I48L
B8: the “FACS (MFI)” value in experiment [5] came to 26100 MFI.

B9: h140Hm13/h140Lm5 (antibody, V domains shown)
VH: B7 VH
VL: B7 VL with D92A
On to B9, for which, in experiment [5], the “FACS (MFI)” value amounted to 27300 MFI.

B10: h140Hm13/h140Lm3 (antibody, V domains shown)
VH: B7 VH
VL: B7 VL with F73L
In the case of B10, the “FACS (MFI)” value in experiment [5] stood at 30600 MFI.

B11: h140Hm13/h140Lm9 (antibody, V domains shown)
VH: B7 VH
VL: B7 VL with D92A, T93G, F94R
notes: also called h140Lmut9; mut9
As to B11, the “FACS (MFI)” value worked out at 17700 MFI in experiment [5] and 34600 MFI in experiment [6].

B12: h140Hm13/h140Lm6 (antibody, V domains shown)
VH: B7 VH
VL: B7 VL with T93G
As to B12, in experiment [5], the “FACS (MFI)” value was found to be 27200 MFI.

B13: h140Hm13/h140Lm7 (antibody, V domains shown)
VH: B7 VH
VL: B7 VL with F94R
B13: the entries for the “FACS (MFI)” value in experiment [5] and in experiment [6] were 16700 MFI and 40200 MFI, respectively.

B14: h140Hm13/h140Lm4 (antibody, V domains shown)
VH: B7 VH
VL: B7 VL with I83F
As for B14, the “FACS (MFI)” value in experiment [5] came out at 24200 MFI.

B15: h140Hm13/h140Lm1 (antibody, V domains shown)
VH: B7 VH
VL: B7 VL with T30S
notes: also called h140Lml
In the case of B15, the “FACS (MFI)” value in experiment [5] is 28700 MFI.
